Where “and” joins values, the source holds several entries; their conditions need not be identical. Equal values may be shown once.
Tests used:
Details in all cases: 20 nM; 72 h
[1] = system: MCF10A; assay: percent viability (nuclei count relative to siNT); higher = more viable cells
Experimental: (§1)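 After 72 h, cells were fixed and stained with Hoechst and anti-fibrillarin, and nucleoli per nucleus were counted with CellProfiler. Values are plate-adjusted percent effect for the one-nucleolus and 5+ nucleoli phenotypes, normalised to siNT (0%) and to the positive controls siNOL11 or siKIF11 (100%), as the mean of biological triplicates. Percent viability is the nuclei count relative to siNT.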

[2] = system: MCF10A; assay: one-nucleolus phenotype percent effect (relative to siNT 0% and siNOL11 100%); higher = more cells with one nucleolus (ribosome biogenesis inhibition)
Experimental: as §1

[3] = system: MCF10A; assay: 5+ nucleoli phenotype percent effect (relative to siNT 0% and siKIF11 100%); higher = more cells with five or more nucleoli
Experimental: as §1

Sequence: ACUCGCAUCCUUCCCUUGGCAG [hsa-miR-6814-3p]
- percent viability [1]: 118%
- one-nucleolus phenotype percent effect [2]: -25.3%
- 5+ nucleoli phenotype percent effect [3]: 32.1%

Sequence: ACUCGGCUGCGGUGGACAAGU [hsa-miR-4638-5p]
- percent viability [1]: 39.5%
- one-nucleolus phenotype percent effect [2]: 3.97%
- 5+ nucleoli phenotype percent effect [3]: -4.89%

Sequence: ACUCUAGCUGCCAAAGGCGCU [hsa-miR-1251]
- percent viability [1]: 80.4%
- one-nucleolus phenotype percent effect [2]: -4.32%
- 5+ nucleoli phenotype percent effect [3]: 11.2%

Sequence: ACUCUUUCCCUGUUGCACUAC [hsa-miR-130b-5p]
- percent viability [1]: 54.3%
- one-nucleolus phenotype percent effect [2]: -13.5%
- 5+ nucleoli phenotype percent effect [3]: 16.1%

Sequence: ACUGAAUCCUCUUUUCCUCAG [hsa-miR-5187-3p]
- percent viability [1]: 67.9%
- one-nucleolus phenotype percent effect [2]: -12.2%
- 5+ nucleoli phenotype percent effect [3]: 0.116%

Sequence: ACUGACAGGAGAGCAUUUUGA [hsa-miR-3660]
- percent viability [1]: 55%
- one-nucleolus phenotype percent effect [2]: -1.95%
- 5+ nucleoli phenotype percent effect [3]: 21.1%

Sequence: ACUGAGCCUCUCUCUCUCCAG [hsa-miR-6751-3p]
- percent viability [1]: 65.4%
- one-nucleolus phenotype percent effect [2]: -10.3%
- 5+ nucleoli phenotype percent effect [3]: -22.5%

Sequence: ACUGAUUAUCUUAACUCUCUGA [hsa-miR-3920]
- percent viability [1]: 82%
- one-nucleolus phenotype percent effect [2]: -37.8%
- 5+ nucleoli phenotype percent effect [3]: 38.1%

Sequence: ACUGAUUUCUUUUGGUGUUCAG [hsa-miR-29a-5p]
- percent viability [1]: 134%
- one-nucleolus phenotype percent effect [2]: -23.9%
- 5+ nucleoli phenotype percent effect [3]: 23.5%

Sequence: ACUGCAGUGAAGGCACUUGUAG [hsa-miR-17-3p]
- percent viability [1]: 70.9%
- one-nucleolus phenotype percent effect [2]: -6.73%
- 5+ nucleoli phenotype percent effect [3]: 12.2%

Sequence: ACUGCAUUAUGAGCACUUAAAG [hsa-miR-20a-3p]
- percent viability [1]: 138%
- one-nucleolus phenotype percent effect [2]: -23.3%
- 5+ nucleoli phenotype percent effect [3]: 43.3%

Sequence: ACUGCCCCAGGUGCUGCUGG [hsa-miR-324-3p]
- percent viability [1]: 68%
- one-nucleolus phenotype percent effect [2]: -7.87%
- 5+ nucleoli phenotype percent effect [3]: 37.7%

Sequence: ACUGCCCUAAGUGCUCCUUCUGG [hsa-miR-18a-3p]
- percent viability [1]: 58.7%
- one-nucleolus phenotype percent effect [2]: -2.39%
- 5+ nucleoli phenotype percent effect [3]: 4.11%

Sequence: ACUGCUGAGCUAGCACUUCCCG [hsa-miR-93-3p]
- percent viability [1]: 33.2%
- one-nucleolus phenotype percent effect [2]: 0.758%
- 5+ nucleoli phenotype percent effect [3]: -7.82%

Sequence: ACUGGAAUUGGAGUCAAAA [hsa-miR-6128]
- percent viability [1]: 105%
- one-nucleolus phenotype percent effect [2]: -18.6%
- 5+ nucleoli phenotype percent effect [3]: 36.5%

Sequence: ACUGGACUAGGAGUCAGAAGG [hsa-miR-378i]
- percent viability [1]: 32.1%
- one-nucleolus phenotype percent effect [2]: 4.21%
- 5+ nucleoli phenotype percent effect [3]: -12.9%

Sequence: ACUGGACUUAGGGUCAGAAGGC [hsa-miR-422a]
- percent viability [1]: 37.8%
- one-nucleolus phenotype percent effect [2]: 12.5%
- 5+ nucleoli phenotype percent effect [3]: -13.7%

Sequence: ACUGGACUUGGAGCCAGAAG [hsa-miR-378f]
- percent viability [1]: 45.3%
- one-nucleolus phenotype percent effect [2]: -12.4%
- 5+ nucleoli phenotype percent effect [3]: 33.7%

Sequence: ACUGGACUUGGAGGCAGAA [hsa-miR-378b]
- percent viability [1]: 36.5%
- one-nucleolus phenotype percent effect [2]: 9.39%
- 5+ nucleoli phenotype percent effect [3]: -14.2%

Sequence: ACUGGACUUGGAGUCAGAAA [hsa-miR-378d]
- percent viability [1]: 25.4% and 31.6%
- one-nucleolus phenotype percent effect [2]: 2.4% and 10.6%
- 5+ nucleoli phenotype percent effect [3]: 9.46% and 4.63%

Sequence: ACUGGACUUGGAGUCAGAAGAGUGG [hsa-miR-378c]
- percent viability [1]: 22.4%
- one-nucleolus phenotype percent effect [2]: -8.35%
- 5+ nucleoli phenotype percent effect [3]: -4.56%

Sequence: ACUGGACUUGGAGUCAGAAGG [hsa-miR-378a-3p]
- percent viability [1]: 45.2%
- one-nucleolus phenotype percent effect [2]: 2.26%
- 5+ nucleoli phenotype percent effect [3]: 22.6%

Sequence: ACUGGACUUGGAGUCAGAAGGC [hsa-miR-378a-3p]
- percent viability [1]: 66.7%
- one-nucleolus phenotype percent effect [2]: -2.19%
- 5+ nucleoli phenotype percent effect [3]: 13.6%

Sequence: ACUGGACUUGGAGUCAGGA [hsa-miR-378e]
- percent viability [1]: 26.4%
- one-nucleolus phenotype percent effect [2]: 11.5%
- 5+ nucleoli phenotype percent effect [3]: -3.63%

Sequence: ACUGGACUUGGUGUCAGAUGG [hsa-miR-378h]
- percent viability [1]: 80%
- one-nucleolus phenotype percent effect [2]: -14.6%
- 5+ nucleoli phenotype percent effect [3]: 41%

Sequence: ACUGGAUUUGGAGCCAGAA [hsa-miR-378j]
- percent viability [1]: 42.3%
- one-nucleolus phenotype percent effect [2]: -17.6%
- 5+ nucleoli phenotype percent effect [3]: -1.17%

Sequence: ACUGGCAGAACACUGAAGCAGC [hsa-miR-6868-5p]
- percent viability [1]: 26.9%
- one-nucleolus phenotype percent effect [2]: 34.1%
- 5+ nucleoli phenotype percent effect [3]: -21.7%

Sequence: ACUGGCAUGCUGCAUUUAUAUA [hsa-miR-4799-3p]
- percent viability [1]: 66.3%
- one-nucleolus phenotype percent effect [2]: -19.8%
- 5+ nucleoli phenotype percent effect [3]: 50.9%

Sequence: ACUGGCAUUAGUGGGACUUUU [hsa-miR-5588-5p]
- percent viability [1]: 46.1%
- one-nucleolus phenotype percent effect [2]: -3.93%
- 5+ nucleoli phenotype percent effect [3]: 33.4%

Sequence: ACUGGCCUGGGACUACCGG [hsa-miR-3176]
- percent viability [1]: 54.4%
- one-nucleolus phenotype percent effect [2]: -13.2%
- 5+ nucleoli phenotype percent effect [3]: 35.3%

Sequence: ACUGGCUAGGGAAAAUGAUUGGAU [hsa-miR-664a-5p]
- percent viability [1]: 47.9%
- one-nucleolus phenotype percent effect [2]: 16.3%
- 5+ nucleoli phenotype percent effect [3]: 8.84%

Sequence: ACUGGGAAGAGGAGCUGAGGGA [hsa-miR-4646-5p]
- percent viability [1]: 35%
- one-nucleolus phenotype percent effect [2]: 21.9%
- 5+ nucleoli phenotype percent effect [3]: -6.37%

Sequence: ACUGGGAUGUCACUGAAUAUGGU [hsa-miR-6506-5p]
- percent viability [1]: 28.3%
- one-nucleolus phenotype percent effect [2]: 25%
- 5+ nucleoli phenotype percent effect [3]: -3.32%

Sequence: ACUGGGCAGGGCUGUGGUGAGU [hsa-miR-6860]
- percent viability [1]: 50.7%
- one-nucleolus phenotype percent effect [2]: -5.92%
- 5+ nucleoli phenotype percent effect [3]: -5.42%

Sequence: ACUGGGGGCUUUCGGGCUCUGCGU [hsa-miR-637]
- percent viability [1]: 22.7%
- one-nucleolus phenotype percent effect [2]: 50.5%
- 5+ nucleoli phenotype percent effect [3]: -19.4%

Sequence: ACUGGGUAGGUGGGGCUCCAGG [hsa-miR-6861-5p]
- percent viability [1]: 31.9%
- one-nucleolus phenotype percent effect [2]: 6.88%
- 5+ nucleoli phenotype percent effect [3]: -15.5%

Sequence: ACUGUAAACGCUUUCUGAUG [hsa-miR-3607-3p]
- percent viability [1]: 124%
- one-nucleolus phenotype percent effect [2]: -18.5%
- 5+ nucleoli phenotype percent effect [3]: 42.2%

Sequence: ACUGUAGUAUGGGCACUUCCAG [hsa-miR-20b-3p]
- percent viability [1]: 74%
- one-nucleolus phenotype percent effect [2]: 1.32%
- 5+ nucleoli phenotype percent effect [3]: -11.6%

Sequence: ACUGUCACUUCUCUGCCCAUAG [hsa-miR-6773-3p]
- percent viability [1]: 47.1%
- one-nucleolus phenotype percent effect [2]: 13.5%
- 5+ nucleoli phenotype percent effect [3]: -17.8%

Sequence: ACUGUUGCUAAUAUGCAACUCU [hsa-miR-367-5p]
- percent viability [1]: 102%
- one-nucleolus phenotype percent effect [2]: -5.32%
- 5+ nucleoli phenotype percent effect [3]: 4.48%

Sequence: ACUUAAACGUGGAUGUACUUGCU [hsa-miR-302a-5p]
- percent viability [1]: 128%
- one-nucleolus phenotype percent effect [2]: -19%
- 5+ nucleoli phenotype percent effect [3]: 65.8%

Sequence: ACUUACAGACAAGAGCCUUGCUC [hsa-miR-600]
- percent viability [1]: 145%
- one-nucleolus phenotype percent effect [2]: -28.1%
- 5+ nucleoli phenotype percent effect [3]: 41.8%

Sequence: ACUUCACCUGGUCCACUAGCCGU [hsa-miR-412]
- percent viability [1]: 118%
- one-nucleolus phenotype percent effect [2]: -11.5%
- 5+ nucleoli phenotype percent effect [3]: 26%

Sequence: ACUUGGGCACUGAAACAAUGUCC [hsa-miR-635]
- percent viability [1]: 65.6%
- one-nucleolus phenotype percent effect [2]: -11.4%
- 5+ nucleoli phenotype percent effect [3]: 32.7%

Sequence: ACUUGGGCAGGAGGGACCCUGUAUG [hsa-miR-6774-5p]
- percent viability [1]: 22%
- one-nucleolus phenotype percent effect [2]: 31.5%
- 5+ nucleoli phenotype percent effect [3]: -35.9%

Sequence: ACUUGUAUGCUAGCUCAGGUAG [hsa-miR-643]
- percent viability [1]: 165%
- one-nucleolus phenotype percent effect [2]: -31.1%
- 5+ nucleoli phenotype percent effect [3]: 68.8%

Sequence: ACUUUAACAUGGAAGUGCUUUC [hsa-miR-302b-5p]
- percent viability [1]: 101%
- one-nucleolus phenotype percent effect [2]: -20.3%
- 5+ nucleoli phenotype percent effect [3]: 35.7%

Sequence: ACUUUAACAUGGAGGCACUUGC [hsa-miR-302d-5p]
- percent viability [1]: 92.5%
- one-nucleolus phenotype percent effect [2]: -13.5%
- 5+ nucleoli phenotype percent effect [3]: 29.1%

Sequence: ACUUUCCUCACUCCCGUGAAGU [hsa-miR-3124-3p]
- percent viability [1]: 115%
- one-nucleolus phenotype percent effect [2]: -15.5%
- 5+ nucleoli phenotype percent effect [3]: 49.4%

Sequence: AGAAAGGUGGAGGGGUUGUCAGA [hsa-miR-6730-5p]
- percent viability [1]: 24.7%
- one-nucleolus phenotype percent effect [2]: 47.3%
- 5+ nucleoli phenotype percent effect [3]: -33.5%

Sequence: AGAACUCUUGCAGUCUUAGAUGU [hsa-miR-4680-5p]
- percent viability [1]: 72%
- one-nucleolus phenotype percent effect [2]: -11.5%
- 5+ nucleoli phenotype percent effect [3]: -12.8%

Sequence: AGAAGAAGGCGGUCGGUCUGCGG [hsa-miR-3185]
- percent viability [1]: 29.1%
- one-nucleolus phenotype percent effect [2]: 33.8%
- 5+ nucleoli phenotype percent effect [3]: -27.8%

Sequence: AGAAGAUUGCAGAGUAAGUUCC [hsa-miR-4699-5p]
- percent viability [1]: 48.2%
- one-nucleolus phenotype percent effect [2]: 31.8%
- 5+ nucleoli phenotype percent effect [3]: -32.9%

Sequence: AGAAGGAAAUUGAAUUCAUUUA [hsa-miR-1252]
- percent viability [1]: 148%
- one-nucleolus phenotype percent effect [2]: -13.6%
- 5+ nucleoli phenotype percent effect [3]: 32.3%

Sequence: AGAAGGCCUUUCCAUCUCUGU [hsa-miR-4493]
- percent viability [1]: 45.9%
- one-nucleolus phenotype percent effect [2]: 41.7%
- 5+ nucleoli phenotype percent effect [3]: -36.6%

Sequence: AGAAGGGAAGAUGGUGAC [hsa-miR-7515]
- percent viability [1]: 42.5%
- one-nucleolus phenotype percent effect [2]: -2.73%
- 5+ nucleoli phenotype percent effect [3]: 4.41%

Sequence: AGAAGGGGUGAAAUUUAAACGU [hsa-miR-3179]
- percent viability [1]: 18.1%
- one-nucleolus phenotype percent effect [2]: 60.8%
- 5+ nucleoli phenotype percent effect [3]: -30.9%

Sequence: AGAAGUAACUACGGUUUUUGCA [hsa-miR-548ao-5p]
- percent viability [1]: 74.5%
- one-nucleolus phenotype percent effect [2]: -16.5%
- 5+ nucleoli phenotype percent effect [3]: 27.5%

Sequence: AGAAGUAAUUGCGGUUUUGCCA [hsa-miR-548ax]
- percent viability [1]: 53.4%
- one-nucleolus phenotype percent effect [2]: 4.38%
- 5+ nucleoli phenotype percent effect [3]: -15.7%

From the supplement of paper PMC10899765
